Results from the RNAGym collection of RNA variant scans (doi:10.1021/acssynbio.7b00057).

B1: Pistol ribozyme (parent)
chain: GGGUCGUUGUUCCAUAAUCGCGUGGAUAUGGCACGCAAGUUUCUACCGGGCACCGUAAAUGUCCGACUGGAGCCGUUCGGGCGGCUAUAAACAGACCUCAGGCCCGAAGCGUGGCGGCACCUGCCGCCGGUGGUAAAAAAGAUCGGAAGAGCACACGUCU

Variants of: B1
Assay: aptazyme ON/OFF ratio, guanine; higher = stronger switching; co-transcriptional cleavage with and without guanine

Point of comparison: GGGUCGCGGCUCAAUAAUCGCGUGGAUAUGGCACGCAAGUUUCUACCGGGCACCGUAAAUGUCCGACUGGAGCCGUUCGGGCGGCUAUAAACAGACCUCAGGCCCGAAGCGUGGCGGCACCUGCCGCCGGUGGUAAAAAAGAUCGGAAGAGCACACGUCU [U7C U8G U10C C13A], “aptazyme ON/OFF ratio” value 1.86. Against it:
- GGGUCGCGCGUCGAUAAUCGCGUGGAUAUGGCACGCAAGUUUCUACCGGGCACCGUAAAUGUCCGACUGGAGCCGUUCGGGCGGCUAUAAACAGACCUCAGGCCCGAAGCGUGGCGGCACCUGCCGCCGGUGGUAAAAAAGAUCGGAAGAGCACACGUCU [U7C U8G G9C U10G C13G] — lower, 1.2
- GGGUCGUUAGAGUAUAAUCGCGUGGAUAUGGCACGCAAGUUUCUACCGGGCACCGUAAAUGUCCGACUGGAGCCGUUCGGGCGGCUAUAAACAGACCUCAGGCCCGAAGCGUGGCGGCACCUGCCGCCGGUGGUAAAAAAGAUCGGAAGAGCACACGUCU [G9A U10G U11A C12G C13U] — lower, 1.53
- GGGUCGAUGGGUAAUAAUCGCGUGGAUAUGGCACGCAAGUUUCUACCGGGCACCGUAAAUGUCCGACUGGAGCCGUUCGGGCGGCUAUAAACAGACCUCAGGCCCGAAGCGUGGCGGCACCUGCCGCCGGUGGUAAAAAAGAUCGGAAGAGCACACGUCU [U7A U10G U11G C12U C13A] — lower, 1.33
- GGGUCGCCGCAUCAUAAUCGCGUGGAUAUGGCACGCAAGUUUCUACCGGGCACCGUAAAUGUCCGACUGGAGCCGUUCGGGCGGCUAUAAACAGACCUCAGGCCCGAAGCGUGGCGGCACCUGCCGCCGGUGGUAAAAAAGAUCGGAAGAGCACACGUCU [U7C U8C U10C U11A C12U] — lower, 1.32
- GGGUCGACAAUGCAUAAUCGCGUGGAUAUGGCACGCAAGUUUCUACCGGGCACCGUAAAUGUCCGACUGGAGCCGUUCGGGCGGCUAUAAACAGACCUCAGGCCCGAAGCGUGGCGGCACCUGCCGCCGGUGGUAAAAAAGAUCGGAAGAGCACACGUCU [U7A U8C G9A U10A C12G] — lower, 1.24
- GGGUCGUCGUGUGAUAAUCGCGUGGAUAUGGCACGCAAGUUUCUACCGGGCACCGUAAAUGUCCGACUGGAGCCGUUCGGGCGGCUAUAAACAGACCUCAGGCCCGAAGCGUGGCGGCACCUGCCGCCGGUGGUAAAAAAGAUCGGAAGAGCACACGUCU [U8C U11G C12U C13G] — lower, 1.07
- GGGUCGGUUGUACAUAAUCGCGUGGAUAUGGCACGCAAGUUUCUACCGGGCACCGUAAAUGUCCGACUGGAGCCGUUCGGGCGGCUAUAAACAGACCUCAGGCCCGAAGCGUGGCGGCACCUGCCGCCGGUGGUAAAAAAGAUCGGAAGAGCACACGUCU [U7G G9U U10G C12A] — lower, 1.7
- GGGUCGCCUGUAAAUAAUCGCGUGGAUAUGGCACGCAAGUUUCUACCGGGCACCGUAAAUGUCCGACUGGAGCCGUUCGGGCGGCUAUAAACAGACCUCAGGCCCGAAGCGUGGCGGCACCUGCCGCCGGUGGUAAAAAAGAUCGGAAGAGCACACGUCU [U7C U8C G9U U10G C12A C13A] — lower, 1.06
- GGGUCGGGAUAAGAUAAUCGCGUGGAUAUGGCACGCAAGUUUCUACCGGGCACCGUAAAUGUCCGACUGGAGCCGUUCGGGCGGCUAUAAACAGACCUCAGGCCCGAAGCGUGGCGGCACCUGCCGCCGGUGGUAAAAAAGAUCGGAAGAGCACACGUCU [U7G U8G G9A U11A C12A C13G] — lower, 1.14
- GGGUCGGGACGUGAUAAUCGCGUGGAUAUGGCACGCAAGUUUCUACCGGGCACCGUAAAUGUCCGACUGGAGCCGUUCGGGCGGCUAUAAACAGACCUCAGGCCCGAAGCGUGGCGGCACCUGCCGCCGGUGGUAAAAAAGAUCGGAAGAGCACACGUCU [U7G U8G G9A U10C U11G C12U C13G] — lower, 1.16
- GGGUCGGGCAUUUAUAAUCGCGUGGAUAUGGCACGCAAGUUUCUACCGGGCACCGUAAAUGUCCGACUGGAGCCGUUCGGGCGGCUAUAAACAGACCUCAGGCCCGAAGCGUGGCGGCACCUGCCGCCGGUGGUAAAAAAGAUCGGAAGAGCACACGUCU [U7G U8G G9C U10A C12U C13U] — lower, 1.04
- GGGUCGGGGGGAGAUAAUCGCGUGGAUAUGGCACGCAAGUUUCUACCGGGCACCGUAAAUGUCCGACUGGAGCCGUUCGGGCGGCUAUAAACAGACCUCAGGCCCGAAGCGUGGCGGCACCUGCCGCCGGUGGUAAAAAAGAUCGGAAGAGCACACGUCU [U7G U8G U10G U11G C12A C13G] — lower, 1.03
- GGGUCGAAUCGAGAUAAUCGCGUGGAUAUGGCACGCAAGUUUCUACCGGGCACCGUAAAUGUCCGACUGGAGCCGUUCGGGCGGCUAUAAACAGACCUCAGGCCCGAAGCGUGGCGGCACCUGCCGCCGGUGGUAAAAAAGAUCGGAAGAGCACACGUCU [U7A U8A G9U U10C U11G C12A C13G] — lower, 1.11
- GGGUCGUUAGGCGAUAAUCGCGUGGAUAUGGCACGCAAGUUUCUACCGGGCACCGUAAAUGUCCGACUGGAGCCGUUCGGGCGGCUAUAAACAGACCUCAGGCCCGAAGCGUGGCGGCACCUGCCGCCGGUGGUAAAAAAGAUCGGAAGAGCACACGUCU [G9A U10G U11G C13G] — lower, 1.14
- GGGUCGAGACAUUAUAAUCGCGUGGAUAUGGCACGCAAGUUUCUACCGGGCACCGUAAAUGUCCGACUGGAGCCGUUCGGGCGGCUAUAAACAGACCUCAGGCCCGAAGCGUGGCGGCACCUGCCGCCGGUGGUAAAAAAGAUCGGAAGAGCACACGUCU [U7A U8G G9A U10C U11A C12U C13U] — lower, 1.1
- GGGUCGGCUUCCUAUAAUCGCGUGGAUAUGGCACGCAAGUUUCUACCGGGCACCGUAAAUGUCCGACUGGAGCCGUUCGGGCGGCUAUAAACAGACCUCAGGCCCGAAGCGUGGCGGCACCUGCCGCCGGUGGUAAAAAAGAUCGGAAGAGCACACGUCU [U7G U8C G9U U11C C13U] — lower, 1.3
- GGGUCGCCUCGGAAUAAUCGCGUGGAUAUGGCACGCAAGUUUCUACCGGGCACCGUAAAUGUCCGACUGGAGCCGUUCGGGCGGCUAUAAACAGACCUCAGGCCCGAAGCGUGGCGGCACCUGCCGCCGGUGGUAAAAAAGAUCGGAAGAGCACACGUCU [U7C U8C G9U U10C U11G C12G C13A] — lower, 1.14
